# Reference: US7135326B2, “UDP-glucosyltransferases” (E. I. du Pont de Nemours and Company, priority 2002, dated 2006)
# B1: Grape GT: Vitis sp. UDP-glucosyltransferase, SEQ ID NO:18, recombinant from E. coli (protein)
# chain: MGSESKLVHVFLVSFPGQGHVNPLLRLGKRLASKGLLVTFSTPESIGKQMRKASNITDQPTPVGEGLIRFEFFEDEWDENEPKRQDLDLYLPQLELVGKKVLPQMIKKHAEQDRPVSCLINNPFIPWVSDVAADLGIPSAMLWVQSCACFSTYYHYYHGLVPFPSEAEPEIDVQLPCMPLLKYDEVASFLYPTTPYPFLRRAILGQYRNLDKPFCILMDTFQELEPEVIEYMSKICPIKPVGPLYKNPKVPNAAVRGDFMKADDCIEWLDSKPPSSIVYVSFGSVVYLKQDQVDEIAYGLLNSGLQFLWVMKPPHKDAGLELLVLPEGFLEKAGDKGKVVQWSPQEQVLAHPSVACFVTHCGWNSSMEALSSGMPVVAFPQWGDQVTDAKYLVDEFKIGVRMCRGEAENKLITRDEVEKCLIEATTGPKAAELKQNAMKWKKAAEQAVAEGGSSERNLQGFVDEVRRRSIEIIYKTKI
# modifications: Vitis ssp.
# Experiments:
# [1] = test system: Grape GT; assay: Substrate specificity of the purified recombinant Grape GT, HPLC analysis of glucose ester formation; format: biochemical, Vitis sp.; conditions: relative to pHBA = 100, 10 mM test substrate, 0.0467 μM purified Grape GT, 15 min, 25° C.
# Procedure: To rule out the possibility that the Grape GT can also attach glucose to the hydroxyl group of pHBA, the products of the in vitro enzyme reaction were directly analyzed by reverse phase HPLC. […] Following a 1-min incubation period at 25° C., the reactions were terminated by the addition of an equal volume of 0.2 N HCl. […] The column was developed at 1 mL/min with a linear gradient of 10–50% Buffer B that was generated over a 20-min period, and absorbance was monitored at 254 nm. […] To test this hypothesis, Applicants' decided to examine the substrate specificity of the Grape GT in greater detail. […] Following a 15-min incubation period at 25° C., the reactions were quenched with an equal volume of 0.3 M HCl and the entire reaction mixture was analyzed by HPLC as described above in Example 6. The products of the various reactions were identified using authentic chemical standards. The retention times and extinction coefficients of these compounds were determined using the same column conditions. […] Regardless of substrate, the purified recombinant Grape GT only catalyzed the formation of glucose esters, which in all cases co-migrated precisely with the authentic compounds. […] Since the glucose ester of the latter compound is the precursor for the synthesis of simple and complex tannins that are extremely abundant in grapes, it is possible that gallic acid is a physiological substrate of the Grape GT. The data shown in Table 3 make it clear that although the Grape GT glucosylated mHBA (3-hydroxybenzoic […]) at a reasonable rate, product formation with oHBA (2-hydroxybenzoic acid) was not observed.
# [2] = biological target: CPL (Escherichia coli, UniProt P26602); assay: Product inhibition of CPL by pHBA; format: biochemical, E. coli; conditions: read-out: inhibitory constant (Ki)
# Chain of CPL (P26602 whole entry): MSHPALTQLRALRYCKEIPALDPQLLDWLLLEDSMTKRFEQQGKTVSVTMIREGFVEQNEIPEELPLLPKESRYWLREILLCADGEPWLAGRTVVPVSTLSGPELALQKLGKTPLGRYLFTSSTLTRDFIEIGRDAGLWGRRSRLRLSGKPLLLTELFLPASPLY
# Procedure: Although double transformant line 39 and the CPL control plant had essentially the same amount of CPL enzyme activity as measured in leaf extracts (Table 8), this doesn't necessarily reflect the situation in vivo. CPL enzyme assays are conducted under optimal conditions, and measure initial velocities in the presence of excess substrate and absence of products. Thus, the initial rate of product formation in the in vitro assay is strictly proportional to the amount of enzyme that is added to the cuvette. Consequently, if two plants had identical levels of CPL gene expression, leaf extracts prepared from these plants would theoretically yield the same initial velocity in the in vitro assay. […] Applicants confirmed these observations.
# [3] = test system: Arabidopsis thaliana glucosyltransferase UGT84A3 (GT 4, SEQ ID NO:12); conditions: 20° C., pH 6; calculated from Vmax of Lim et al. 2001; cited from earlier work
# [4] = test system: Arabidopsis thaliana glucosyltransferase UGT84A1 (84A1, GT 3, SEQ ID NO:8); conditions: 20° C., pH 6; calculated from Vmax of Lim et al. 2001; cited from earlier work
# [5] = Acid and base hydrolysis of pHBA glucose conjugates, HPLC; format: physicochemical; conditions: 48 h at 60° C. with NaOH or HCL, 0.19 mM
# Procedure: The initial concentration of both compounds was 0.19 mM and the total reaction volume was […]. Reactions were conducted in tightly sealed polypropylene tubes to prevent evaporative loss. […] Prior to HPLC analysis, the acid hydrolyzed samples were diluted with an equal volume of NaOH that contained a 0.2 mM excess of NaOH relative to the original concentration of HCL. The base hydrolyzed samples were analyzed directly. Chemically synthesized pHBA phenolic and ester glucoside standards and free pHBA were used to calibrate the HPLC runs for retention times, and extinction coefficients for all three compounds were accurately determined under the conditions employed. Peak areas were integrated using the software package provided with the Hewlett Packard Chemstation, and values obtained with known amounts of the chemical standards were used to quantitate compounds of interest in the acid and base hydrolyzed samples.
# [6] = test system: Arabidopsis thaliana glucosyltransferase UGT84A2; conditions: 20° C., pH 6; calculated from Vmax of Lim et al. 2001; cited from earlier work
# [7] = Continuous spectrophotometric UDP-glucosyltransferase assay, formation of pHBA glucose ester at 304 nm, E. coli cell-free extracts; format: biochemical; conditions: crude extract, 10 mM UDP-glucose, pH 7.3, 25° C.
# Procedure: (§1) For protein production, the resulting recombinant strains were grown at 22° C. in 50 mL of LB media that contained kanamycin (50 μg/mL). At an A600 nm of ˜0.6, isopropyl-1-thio-β-D-galactopyranoside was added to a final concentration of 0.2 mM. Following a 22-h induction period at the same temperature, the cells were harvested by centrifugation and stored at −80° C. for subsequent manipulation as described below.
# (§2) The frozen cell pellets were resuspended in 1.0 mL of a solution containing 100 mM Tris-HCl (pH 7.7), 5 mM MgSO4, 1 mM dithiothreitol, 0.03 mg/mL DNAse I, 0.5 mM phenylmethanesulfonyl fluoride, and passed once through a French pressure cell at 20,000 psi. Debris was removed by centrifugation (43,000×g, 60 min), and the resulting cell-free extracts, containing ˜15 mg of protein per mL, were supplemented with 5% glycerol and stored at −80° C. for subsequent measurements of enzyme activities. Protein concentrations were determined by the Bradford Method using bovine serum albumin as a standard.
# [8] = Continuous spectrophotometric UDP-glucosyltransferase assay, formation of glucose ester of sinapic acid at 368 nm, E. coli cell-free extracts; format: biochemical; conditions: crude extract, 10 mM UDP-glucose, pH 7.3, 25° C.
# Procedure: as §1, §2
# (§3) The second assay is based on the increase in absorbance at 368 nm that accompanies the formation of the glucose ester of sinapic acid. The experimental conditions were the same as those described above, but the test substrate was sinapic acid and product formation was calculated using an extinction coefficient of 5,570 M^−1 that was obtained with the authentic chemically synthesized compound under identical conditions.
# [9] = Ratio of enzyme activity with pHBA versus sinapic acid (spectrophotometric assays); format: biochemical; conditions: for pHBA/SA ratio of enzyme activity: crude extract
# Procedure: as §3
# [10] = Reverse phase HPLC analysis of the products of the in vitro enzyme reaction with pHBA; format: biochemical
# Procedure: To rule out the possibility that the Grape GT can also attach glucose to the hydroxyl group of pHBA, the products of the in vitro enzyme reaction were directly analyzed by reverse phase HPLC. […] Following a 1-min incubation period at 25° C., the reactions were terminated by the addition of an equal volume of 0.2 N HCl. The samples were briefly centrifuged, and 20-μL aliquots of the resulting supernatants were injected onto a Vydac 218TP54 Protein and Peptide C18 column, (Grace Vydac, Hesperia, Calif.) pre-equilibrated with 90% Buffer A (0.1% formic acid in water) and 10% Buffer B (methanol). The column was developed at 1 mL/min with a linear gradient of 10–50% Buffer B that was generated over a 20-min period, and absorbance was monitored at 254 nm.
# In light of these observations, it was extremely important to analyze the reaction products of the Grape GT over a broader range of pH that encompasses physiological conditions. […] In addition, the reaction mixtures also contained 100 mM potassium phosphate buffer (pH 6.0, 7.0 or 8.0), 5 mM MgCl2, 5 mM UDP-glucose, 2 mM dithiothreitol, and 0.47 μM of the purified recombinant Grape GT. After a 15-min incubation period, the reactions were terminated by the addition of an equal volume of 0.3 M HCl and analyzed by reverse phase HPLC as described above. […]
# [11] = Freeze/thaw stability of the purified recombinant Grape GT; format: physicochemical; conditions: diluted in buffer with 6% glycerol and 5 mM dithiothreitol, kept on ice, frozen to −80° C.
# Procedure: For all the enzyme assays described below, frozen aliquots of the purified Grape GT were rapidly thawed and diluted to the desired concentration with ice-cold buffer containing 50 mM Tris-HCl (pH 7.6), 1 mM EDTA, 10 mM Na2SO3, 300 mM NaCl, 6% glycerol and 5 mM dithiothreitol.
molecule,measurement,setting,value
"COc1cc(/C=C/C(=O)O)ccc1O [Ferrulic acid, ferrulic acid]",Relative Rate of product formation,[1],16
"O=C(O)c1cc(O)c(O)c(O)c1 [Gallic acid, 3,4,5-trihydoxybenzoic acid]",Relative Rate of product formation,[1],64
"O=C(O)c1cccc(O)c1 [MHBA, m-Hydroxybenzoic acid]",Relative Rate of product formation,[1],47
"O=C(O)c1ccccc1O [OHBA, o-Hydroxybenzoic acid]",Relative Rate of product formation,[1],0
"O=C(O)c1ccc(O)cc1 [PHBA, p-Hydroxybenzoic acid]",Relative Rate of product formation,[1],100
same,Ki,[2],~2 µM
"O=C(O)C=Cc1ccc(O)cc1 [PHCA, 4-hydroxycinnamic acid]",Relative Rate of product formation,[1],56
COc1cc(/C=C/C(=O)O)cc(OC)c1O [Sinapic acid],Relative Rate of product formation,[1],10
O=C(O)/C=C/c1ccccc1 [cinnamic acid],turnover number with cinnamic acid,[3],~0.9 s⁻¹
O=C(O)/C=C/c1ccc(O)cc1 [p-hydroxycinnamic acid],turnover number with p-hydroxycinnamic acid,[4],~0.70 s⁻¹
O=C(O[C@@H]1O[C@H](CO)[C@@H](O)[C@H](O)[C@H]1O)c1ccc(O)cc1 [pHBA glucose ester],susceptibility to acid and base hydrolysis,[5],far more susceptible to acid and base hydrolysis than the pHBA phenolic glucoside
"COc1cc(/C=C/C(=O)O)cc(OC)c1O [sinapic acid, Sinapic acid]",turnover number with sinapic acid,[6],~0.72 s⁻¹
B1,"initial rate of product formation, 1 mM pHBA",[7]; 1 mM pHBA,96.4 μM per min
same,"initial rate of product formation, 5 mM pHBA",[7]; 5 mM pHBA,177 μM per min
same,"initial rate of product formation, 10 mM pHBA",[7]; 10 mM pHBA,181 μM per min
same,"initial rate of product formation, 1 mM SA",[8]; 1 mM sinapic acid,22.8 μM per min
same,"initial rate of product formation, 5 mM SA",[8]; 5 mM sinapic acid,16.6 μM per min
same,"initial rate of product formation, 10 mM SA",[8]; 10 mM sinapic acid,4.8 μM per min
same,substrate preference for pHBA over sinapic acid,[9]; 10 mM substrate concentration,37.7 fold
same,rate of pHBA glucosylation relative to sinapic acid,"[9]; 10 mM substrate, cell-free extract",~40 times
same,Ratio of Activity pHBA/SA,"[9]; Table 4, cell-free extracts, 10 mM pHBA or sinapic acid, 25° C.",37.7
same,pHBA/SA ratio of enzyme activity,[9]; 1 mM substrate,4.23
same,pHBA/SA ratio of enzyme activity,[9]; 5 mM substrate,10.7
same,pHBA/SA ratio of enzyme activity,[9]; 10 mM substrate,37.7
same,glucose conjugates detected by HPLC,"[10]; pH 6.0, 7.0 or 8.0, 0.15 mM or 5 mM pHBA, 0.47 μM purified Grape GT, 15 min",the only glucose conjugate that was detected in the in vitro assay was the pHBA glucose ester
same,glucosylated products detected by HPLC,"[10]; purified enzyme, pH 7.3, 0.3 mM pHBA, 5 mM UDP-glucose, 25° C. (Example 6)",the only glucosylated product that was detected in the fractionated enzyme reaction mixture was the pHBA glucose ester
same,stability to freeze/thaw,[11],stable to multiple cycles of freeze/thaw without significant loss of enzyme activity
